Patent US20240132485A1, “HETEROCYCLIC CULLIN RING UBIQUITIN LIGASE COMPOUNDS AND USES THEREOF” (CEMM - FORSCHUNGSZENTRUM FÜR MOLEKULARE MEDIZIN GMBH, priority 2020, published 2024)

Tests used:
[1] = molecular target: Nanoluc_DDB1 (N-terminal Nanoluc luciferase, G4S linker, DDB1 (FL)) (UniProt Q16531); assay: NanoBRET in HEK293T cells, 10 µM compound Example 3-5; class B = 3-4 fold increase
[2] = molecular target: Nanoluc_DDB1 (N-terminal Nanoluc luciferase, G4S linker, DDB1 (FL)) (UniProt Q16531); assay: NanoBRET in HEK293T cells, 10 µM compound Example 3-7; class B = 3-4 fold increase
[3] = molecular target: Nanoluc_DDB1 (N-terminal Nanoluc luciferase, G4S linker, DDB1 (FL)) (UniProt Q16531); assay: NanoBRET in HEK293T cells, 10 µM compound Example 3-22; class B = 3-4 fold increase
[4] = molecular target: Nanoluc_DDB1 (N-terminal Nanoluc luciferase, G4S linker, DDB1 (FL)) (UniProt Q16531); assay: NanoBRET in HEK293T cells, 10 µM compound Example 3-23; class B = 3-4 fold increase
[5] = molecular target: Nanoluc_DDB1 (N-terminal Nanoluc luciferase, G4S linker, DDB1 (FL)) (UniProt Q16531); assay: NanoBRET in HEK293T cells, 10 µM compound Example 3-24; class B = 3-4 fold increase
[6] = molecular target: Nanoluc_DDB1 (N-terminal Nanoluc luciferase, G4S linker, DDB1 (FL)) (UniProt Q16531); assay: NanoBRET in HEK293T cells, 10 µM compound Example 3-30; class C = 2-3 fold increase
[7] = molecular target: Nanoluc_DDB1 (N-terminal Nanoluc luciferase, G4S linker, DDB1 (FL)) (UniProt Q16531); assay: NanoBRET in HEK293T cells, 10 µM compound Example 3-32; class B = 3-4 fold increase
[8] = molecular target: Nanoluc_DDB1 (N-terminal Nanoluc luciferase, G4S linker, DDB1 (FL)) (UniProt Q16531); assay: NanoBRET in HEK293T cells, 10 µM compound Example 3-36; class C = 2-3 fold increase
[9] = molecular target: Nanoluc_DDB1 (N-terminal Nanoluc luciferase, G4S linker, DDB1 (FL)) (UniProt Q16531); assay: NanoBRET in HEK293T cells, 10 µM compound Example 3-37; class C = 2-3 fold increase
[10] = molecular target: Nanoluc_DDB1 (N-terminal Nanoluc luciferase, G4S linker, DDB1 (FL)) (UniProt Q16531); assay: NanoBRET in HEK293T cells, 10 µM compound Example 3-53; class B = 3-4 fold increase
[11] = molecular target: Nanoluc_DDB1 (N-terminal Nanoluc luciferase, G4S linker, DDB1 (FL)) (UniProt Q16531); assay: NanoBRET in HEK293T cells, 10 µM compound Example 3-54; class C = 2-3 fold increase
[12] = molecular target: Nanoluc_DDB1 (N-terminal Nanoluc luciferase, G4S linker, DDB1 (FL)) (UniProt Q16531); assay: NanoBRET in HEK293T cells, 10 µM compound Example 3-55; class B = 3-4 fold increase
[13] = molecular target: Nanoluc_DDB1 (N-terminal Nanoluc luciferase, G4S linker, DDB1 (FL)) (UniProt Q16531); assay: NanoBRET in HEK293T cells, 10-point titration of compound Example 3-59; class E = >10 µM
[14] = molecular target: Nanoluc_DDB1 (N-terminal Nanoluc luciferase, G4S linker, DDB1 (FL)) (UniProt Q16531); assay: NanoBRET in HEK293T cells, 10-point titration of compound Example 3-63; class E = >10 µM
[15] = molecular target: Nanoluc_DDB1 (N-terminal Nanoluc luciferase, G4S linker, DDB1 (FL)) (UniProt Q16531); assay: NanoBRET in HEK293T cells, 10-point titration of compound Example 3-64; class E = >10 µM
[16] = molecular target: Nanoluc_DDB1 (N-terminal Nanoluc luciferase, G4S linker, DDB1 (FL)) (UniProt Q16531); assay: NanoBRET in HEK293T cells, 10 µM compound Example 3-4; class A = greater than 4-fold increase
[17] = molecular target: Nanoluc_DDB1 (N-terminal Nanoluc luciferase, G4S linker, DDB1 (FL)) (UniProt Q16531); assay: NanoBRET in HEK293T cells, 10 µM compound Example 3-8; class A = greater than 4-fold increase
[18] = molecular target: Nanoluc_DDB1 (N-terminal Nanoluc luciferase, G4S linker, DDB1 (FL)) (UniProt Q16531); assay: NanoBRET in HEK293T cells, 10 µM compound Example 3-11; class A = greater than 4-fold increase
[19] = molecular target: Nanoluc_DDB1 (N-terminal Nanoluc luciferase, G4S linker, DDB1 (FL)) (UniProt Q16531); assay: NanoBRET in HEK293T cells, 10 µM compound Example 3-33; class A = greater than 4-fold increase
[20] = molecular target: Nanoluc_DDB1 (N-terminal Nanoluc luciferase, G4S linker, DDB1 (FL)) (UniProt Q16531); assay: NanoBRET in HEK293T cells, 10 µM compound Example 3-45; class A = greater than 4-fold increase
[21] = molecular target: Nanoluc_DDB1 (N-terminal Nanoluc luciferase, G4S linker, DDB1 (FL)) (UniProt Q16531); assay: NanoBRET in HEK293T cells, 10 µM compound Example 3-47; class A = greater than 4-fold increase
[22] = molecular target: Nanoluc_DDB1 (N-terminal Nanoluc luciferase, G4S linker, DDB1 (FL)) (UniProt Q16531); assay: NanoBRET in HEK293T cells, 10 µM compound Example 3-50; class A = greater than 4-fold increase
[23] = molecular target: Nanoluc_DDB1 (N-terminal Nanoluc luciferase, G4S linker, DDB1 (FL)) (UniProt Q16531); assay: NanoBRET in HEK293T cells, 10 µM compound Example 3-64; class A = greater than 4-fold increase
[24] = molecular target: Nanoluc_DDB1 (N-terminal Nanoluc luciferase, G4S linker, DDB1 (FL)) (UniProt Q16531); assay: NanoBRET in HEK293T cells, 10-point titration of compound Example 3-1; class A = EC50<=0.25 µM
[25] = molecular target: Nanoluc_DDB1 (N-terminal Nanoluc luciferase, G4S linker, DDB1 (FL)) (UniProt Q16531); assay: NanoBRET in HEK293T cells, 10-point titration of compound Example 3-43; class A = EC50<=0.25 µM
[26] = molecular target: Nanoluc_DDB1 (N-terminal Nanoluc luciferase, G4S linker, DDB1 (FL)) (UniProt Q16531); assay: NanoBRET in HEK293T cells, 10-point titration of compound Example 3-62; class A = EC50<=0.25 µM

Sequence of Nanoluc_DDB1 (N-terminal Nanoluc luciferase, G4S linker, DDB1 (FL)) (Q16531 other isoform, or with tags, fused parts or gaps): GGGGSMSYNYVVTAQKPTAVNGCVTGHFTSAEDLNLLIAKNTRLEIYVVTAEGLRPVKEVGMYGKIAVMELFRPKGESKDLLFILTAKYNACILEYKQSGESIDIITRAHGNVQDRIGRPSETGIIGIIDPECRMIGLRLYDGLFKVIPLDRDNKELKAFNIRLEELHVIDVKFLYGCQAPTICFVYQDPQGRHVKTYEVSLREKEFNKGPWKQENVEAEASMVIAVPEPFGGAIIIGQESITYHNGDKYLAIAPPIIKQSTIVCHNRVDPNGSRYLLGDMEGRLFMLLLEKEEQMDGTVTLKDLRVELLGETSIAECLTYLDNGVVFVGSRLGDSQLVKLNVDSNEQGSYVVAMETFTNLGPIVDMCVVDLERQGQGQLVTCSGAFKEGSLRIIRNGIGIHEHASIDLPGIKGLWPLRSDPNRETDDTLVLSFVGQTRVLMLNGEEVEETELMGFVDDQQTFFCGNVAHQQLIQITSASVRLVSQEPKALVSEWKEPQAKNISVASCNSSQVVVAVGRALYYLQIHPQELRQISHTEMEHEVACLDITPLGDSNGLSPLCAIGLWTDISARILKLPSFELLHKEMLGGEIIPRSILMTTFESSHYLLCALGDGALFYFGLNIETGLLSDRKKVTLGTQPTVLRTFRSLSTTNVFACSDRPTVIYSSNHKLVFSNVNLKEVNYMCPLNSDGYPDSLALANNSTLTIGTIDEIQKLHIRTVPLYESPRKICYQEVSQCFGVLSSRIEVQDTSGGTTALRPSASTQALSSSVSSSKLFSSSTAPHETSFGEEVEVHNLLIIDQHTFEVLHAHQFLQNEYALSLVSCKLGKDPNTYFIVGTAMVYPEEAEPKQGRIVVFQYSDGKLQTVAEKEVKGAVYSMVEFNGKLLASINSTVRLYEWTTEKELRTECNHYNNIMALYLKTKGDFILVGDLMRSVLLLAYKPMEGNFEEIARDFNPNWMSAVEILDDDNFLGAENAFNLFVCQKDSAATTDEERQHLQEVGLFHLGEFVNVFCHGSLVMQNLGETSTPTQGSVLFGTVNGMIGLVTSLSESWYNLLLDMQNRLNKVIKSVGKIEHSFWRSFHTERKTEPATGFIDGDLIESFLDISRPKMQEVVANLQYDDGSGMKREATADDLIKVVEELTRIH

- NanoBRET fold increase [1]: 3 to 4 fold
- NanoBRET fold increase [2]: 3 to 4 fold
- NanoBRET fold increase [3]: 3 to 4 fold
- NanoBRET fold increase [4]: 3 to 4 fold
- NanoBRET fold increase [5]: 3 to 4 fold
- NanoBRET fold increase [6]: 2 to 3 fold
- NanoBRET fold increase [7]: 3 to 4 fold
- NanoBRET fold increase [8]: 2 to 3 fold
- NanoBRET fold increase [9]: 2 to 3 fold
- NanoBRET fold increase [10]: 3 to 4 fold
- NanoBRET fold increase [11]: 2 to 3 fold
- NanoBRET fold increase [12]: 3 to 4 fold
- EC50 [13]: > 10 µM
- EC50 [14]: > 10 µM
- EC50 [15]: > 10 µM
- NanoBRET fold increase [16]: > 4 fold
- NanoBRET fold increase [17]: > 4 fold
- NanoBRET fold increase [18]: > 4 fold
- NanoBRET fold increase [19]: > 4 fold
- NanoBRET fold increase [20]: > 4 fold
- NanoBRET fold increase [21]: > 4 fold
- NanoBRET fold increase [22]: > 4 fold
- NanoBRET fold increase [23]: > 4 fold
- EC50 [24]: < 0.25 µM
- EC50 [25]: < 0.25 µM
- EC50 [26]: < 0.25 µM
Substance: HaloTag_CDK12 (N-terminal HaloTag, G4S linker, CDK12 (713-1052)) (from UniProt Q9NYV4 713-1052) (enzyme)
